Experimental data as given in US20040214757.

Key:
Assay in all cases: EMSA
[1] = target: Oct-2 (pBS-ATG-oct-2, cDNA 655-1710) (Homo sapiens, UniProt P09086 SEQ:199-466)
Protocol: (§1) The polypeptides translated in vitro from these RNAs were tested for specific DNA binding by addition of the total translation mix to the DNA-protein gel assay.

[2] = target: T1, Oct-2 truncated at PstI (cDNA 655-1134) (Homo sapiens, UniProt P09086 SEQ:199-358)
T1 sequence: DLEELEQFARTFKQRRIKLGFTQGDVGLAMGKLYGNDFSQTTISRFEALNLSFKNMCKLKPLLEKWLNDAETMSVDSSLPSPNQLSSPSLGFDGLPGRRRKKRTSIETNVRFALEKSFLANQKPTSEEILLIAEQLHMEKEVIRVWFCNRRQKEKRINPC
Protocol: as §1

[3] = target: Oct-2 truncated at StuI (cDNA 655-1443) (Homo sapiens, UniProt P09086 SEQ:199-461)
Protocol: as §1

Measured: binding result

B1: OCTA octanucleotide probe (dsDNA)
DNA 1: ATGCAAAT
DNA 2: ATTTGCAT
binds: [1] | [2] | [3]
